Source: US7053264B2, “Nuclear reprogramming using IWSI and related chromatin remodeling ATPases” (Sangamo Biosciences, Inc., priority 2000, dated 2006)
Positions count from the first letter of the chain named.

B1: rISWI: recombinant Drosophila ISWI produced in E. coli (protein, UniProt Q24368 1-1027, looked up)
Chromatin-remodeling complex …: MSKTDTAAVEATEENSNETTSDAATSSSGEKEAEFDNKIEADRSRRFDFLLKQTEIFTHFMTNSAKSPTKPKGRPKKIKDKDKEKDVADHRHRKTEQEEDEELLAEDSATKEIFRFDASPAYIKSGEMRDYQIRGLNWMISLYENGINGILADEMGLGKTLQTISLLGYLKHFKNQAGPHIVIVPKSTLQNWVNEFKKWCPSLRAVCLIGDQDTRNTFIRDVLMPGEWDVCVTSYEMCIREKSVFKKFNWRYLVIDEAHRIKNEKSKLSEILREFKTANRLLITGTPLQNNLHELWALLNFLLPDVFNSSEDFDEWFNTNTCLGDDALITRLHAVLKPFLLRRLKAEVEKRLKPKKEMKIFVGLSKMQRDWYTKVLLKDIDVVNGAGKVEKMRLQNILMQLRKCTNHPYLFDGAEPGPPYTTDTHLVYNSGKMAILDKLLPKLQEQGSRVLIFSQMTRMLDILEDYCHWRNYNYCRLDGQTPHEDRNRQIQEFNMDNSAKFLFMLSTRAGGLGINLATADVVIIYDSDWNPQMDLQAMDRAHRIGQKKQVRVFRLITESTVEEKIVERAEVKLRLDKMVIQGGRLVDNRSNQLNKDEMLNIIRFGANQVFSSKETDITDEDIDVILERGEAKTAEQKAALDSLGESSLRTFTMDTNGEAGTSSVYQFEGEDWREKQKLNALGNWIEPPKRERKANYAVDAYFREALRVSEPKAPKAPRPPKQPIVQDFQFFPPRLFELLDQEIYYFRKTVGYKVPKNTELGSDATKVQREEQRKIDEAEPLTEEEIQEKENLLSQGFTAWTKRDFNQFIKANEKYGRDDIDNIAKDVEGKTPEEVIEYNAVFWERCTELQDIERIMGQIERGEGKIQRRLSIKKALDQKMSRYRAPFHQLRLQYGNNKGKNYTEIEDRFLVCMLHKLGFDKENVYEELRAAIRASPQFRFDWFIKSRTALELQRRCNTLITLIERENIELEEKERAEKKKKAPKGSVSAGSGSASSNTPAPAPQPKASQKRKSEVVATSSNSKKKKK
B2: mutant of rISWI: rISWI in which lysine 159 in the adenine nucleotide binding domain was replaced with arginine; negative control (protein, UniProt Q24368 1-1027, looked up, variant K159R)
Chromatin-remodeling complex …: B1 Chromatin-remodeling complex … with K159R

Key:
[1] = test system: nuclei of Xenopus XTC-2 cells; assay: Biochemical complementation assay: release of TBP from nuclei by purified proteins combined with SP Sepharose flow through (FT); settings: for reconstitution of release of TBP from nuclei: combined with SP Sepharose FT in the presence of ERS, FIG. 4D
Protocol: (§1) “Extract” refers to unfractionated egg extract. […] The gel was stained with Coomassie Blue. FIG. 4C depicts ATPase activity of ISWI-D and rISWI. ATPase activity was determined in the presence of buffer (−), DNA (D), or nucleosomes (N). The arrowhead indicates the free phosphate generated by ATP hydrolysis. FIG. 4D depicts biochemical complementation assays for activities capable of removing TBP from the nucleus. Egg extract (Ext), SP Sepharose flow through (FT), and FT complemented with various purified proteins at indicated concentrations were compared for remodeling activity by monitoring residual TBP in the nuclear pellet after incubation of nuclei in an egg extract. All lanes included ERS except lanes 7 and 8, which contained apyrase. Np indicates nucleoplasmin.
The ISWI-D complex was purified from Xenopus egg extract (FIG. 4A), and shown to contain two subunits: p195 and ISWI (FIG. 4B). For the purification, egg extract was fractionated through BioRex 70 (Bio-Rad, Hercules, Calif.) and MonoQ (Amersham Pharmacia, Piscataway, N.J.) essentially as described in Wade et al. (1998) Curr Biol 8:843–846. The MonoQ ISWI-D peak (eluting at approximately 0.45 M NaCl) was further purified by gradient elution on MonoS (linear gradient from 0.1 to 0.5 M NaCl in Buffer A) as described in Wade et al., supra. ISWI-D was eluted at approximately 0.3 M NaCl. Drosophila rISWI was produced in E. coli and purified by IMPACT T7 system (New England Biolabs, Beverly, Mass.) and Superdex 200 gel filtration column (Amersham Pharmacia). ATPase activity was tested as described in Corona et al, supra.
Either ISWI-D complex or rISWI were essential for release of TBP from nuclei. The endogenous activity in the extract responsible for the release of TBP from chromatin was depleted by applying the extract to SP Sepharose, and restored by combining the SP Sepharaose flow through (FT) and the 0.5 M NaCl eluate from BioRex 70 that contained ISWI (FIG. 4D, lanes 2 and 3). FT was prepared from SP Sepharose (Amersham Pharmacia) by equilibrating the resin with Buffer A and briefly centrifuging to deplete the buffer. The egg extract was incubated with the equilibrated resin for 30 minutes in a cold room and briefly centrifuged to collect FT. […] Release of TBP from nuclei by ISWI plus FT was also confirmed by immunofluorescence.
Three other proteins known to modify protein-DNA interactions (TAF172, the Mi-2 complex and nucleoplasmin) were also tested in this biochemical complementation assay. Recombinant human TAF172 was prepared in a baculovirus expression system (see Chicca et al. (1998) Mol Cell Biol 18:1701–1710), while the Mi-2 complex and nucleoplasmin were isolated from Xenopus egg extracts. TAF 172, the human homologue of yeast Mot1, also belongs to the SWI2/SNF2 superfamily and removes TBP from DNA in vitro (Auble et al. (1994) Genes Dev 8:1920–1934; Chicca et al., supra). The Xenopus Mi-2 complex contains Mi-2, also a member of the SWI2/SNF2 superfamily, in addition to five other subunits and remodels chromatin (Wade et al (1998) Curr Biol 8:843–846; Guschin et al. (2000) Biochem 39:5238–5245). Nucleoplasmin remodels sperm chromatin upon fertilization (Dimitrov et al., supra; Philpott et al. (2000) Cell 69:759767). […] Higher concentrations of these proteins were also tested, with similar results.

[2] = test system: nuclei of Xenopus XTC-2 cells; assay: Nuclear remodeling assay: permeabilized somatic nuclei incubated in Xenopus egg S phase extract, TBP in nuclear pellet by immunoblot; assay type: biochemical; settings: agent added to nuclear remodeling reaction in egg extract; immunoblot FIG. 1A
Protocol: To simplify nuclear remodeling assays by eliminating nuclear transport steps, both the plasma membrane and nuclear envelope of Xenopus XTC-2 cells (henceforth called nuclei) were permeabilized with a detergent, essentially as described in Adam et al. (1992) Methods Enzymol. […] Xenopus XTC-2 cells were permeabilized with 30 μg/ml digitonin for three minutes using the LL-Bsa method (Gurdon (1976) J. Embryol. Exp. Morphol. 36:5235407) replacing lysolecithin (which caused tight aggregation of nuclei) by digitonin. […] The permeability of the nuclear envelope was monitored by the passive entry of fluorescence-labeled immunoglobulin G (150k Da) into the nuclei (Newmeyer et al. (1986) J Cell Biol 103:2091–2102). […]
After incubation for two hours at room temperature 100 μl of Buffer B (10 mM HEPES pH 7.8, 75 mM KCl, 4 mM magnesium chloride, 250 mM sucrose, 0.5 mM spermidine trihydrochloride, 0.15 mM spermine tetrahydrochloride, 1 mM dithiothreitol, 10 mM β-glycerophosphate, 1 μg/ml leupeptin, 2 μg/ml pepstatin A, 100 μM 4-(2-aminoethyl)-benzenesulfonyl fluoride, AEBSF) was added and the reaction mix was centrifuged at 15,000× g for 10 min. The pellet, called remodeled nuclei, was analyzed by immunoblotting using SuperSignal West Dura (Pierce, Rockford, Ill.) as a substrate of horseradish peroxidase.

nuclear matrix = assay: Release of TBP from purified nuclear matrix, immunoblot; assay type: biochemical, Xenopus; settings: presence of ERS; ISWI-D or rISWI added to the FT fraction; FIG. 5
Protocol: Analysis of histone H2B is shown as a control. Nuclear matrix was prepared as described in the Examples, and nuclear matrix proteins were separated by gel electorphoresis. Each lane contained matrix from 4×10^5 nuclei. The gel was blotted, and the blots were analyzed with antibodies to TBP or H2B. Nuclei were incubated with egg extract (lanes 2 and 3) or various combinations of proteins and protein fractions (lanes 4–8) prior to preparation of nuclear matrix. Analysis of a preparation of nuclear matrix from nuclei that were not incubated with extract or proteins is shown in lane 1. Presence or absence of an ERS in the incubation is indicated by “+” and “−,” respectively.
To understand the mechanism of the release of TBP further, nuclear matrix was prepared from the nuclei that had not been incubated in the egg extract, by using 0.5% Triton X-100, DNase I, 250 mM ammonium sulfate, and 2M NaCl. The nuclear matrix was prepared essentially as described D. L. Spector and D. Goldman, L. L. A, in Cells, A Laboratory Manual. (Cold Spring Harbor Laboratory Press, New York, 1997) pp. 44.1–44.8. […]
The purified nuclear matrix was incubated in the egg extract and its composition was analyzed by immunoblotting.

nucleosomes = assay: ATPase activity in the presence of buffer, DNA or nucleosomes; assay type: biochemical; settings: FIG. 4C
Protocol: as §1
The ISWI-D complex was purified from Xenopus egg extract (FIG. 4A), and shown to contain two subunits: p195 and ISWI (FIG. 4B). For the purification, egg extract was fractionated through BioRex 70 (Bio-Rad, Hercules, Calif.) and MonoQ (Amersham Pharmacia, Piscataway, N.J.) essentially as described in Wade et al. (1998) Curr Biol 8:843–846. The MonoQ ISWI-D peak (eluting at approximately 0.45 M NaCl) was further purified by gradient elution on MonoS (linear gradient from 0.1 to 0.5 M NaCl in Buffer A) as described in Wade et al., supra. ISWI-D was eluted at approximately 0.3 M NaCl. […]

| Molecule | reconstitution of release of TBP from nuclei [1] | effect on exclusion (loss) of TBP from nuclei in egg extract [2] | further results |
| --- | --- | --- | --- |
| TAF172: recombinant human TAF172, homologue of yeast Mot1, prepared in a baculovirus expression system | None of these proteins proved capable of reconstituting TBP removal activity |  |  |
| aphidicholin |  | neither aphidicholin nor arabinosylcytosine (both inhibitors of DNA replication) inhibited the loss of TBP |  |
| apyrase |  | exclusion was inhibited |  |
| nucleoplasmin: molecular chaperone isolated from Xenopus egg extracts; remodels sperm chromatin | None of these proteins proved capable of reconstituting TBP removal activity |  |  |
| B1 | competent to reconstitute release of TBP from nuclei |  | release of TBP from nuclei in combination with nucleoplasmin ([1]; nucleoplasmin substituted for the FT fraction): incapable of releasing TBP from nuclei; release of TBP from nuclei in the absence of FT ([1]; without FT fraction): Neither the ISWI-D complex nor rISWI could release TBP from nuclei; release of TBP from the nuclear matrix (nuclear matrix): resulted in release of TBP |
| B2 | not competent to reconstitute release of TBP from nuclei |  | nucleosomal ATPase activity (nucleosomes): lacked nucleosomal ATPase activity |
